Measurements published in the supplement of paper PMC9112550, “Optimization of the antimicrobial peptide Bac7 by deep mutational scanning” (BMC Biology, 2022).

Test system: Escherichia coli TOP10
Test: shrunken log2 fold change of peptide-encoding DNA abundance (4.5 h post-induction vs induction); higher = less antimicrobial activity (less host growth inhibition)
Settings: time post-induction: 4.5 h; library: site-saturation at positions 5, 18, 19, 20
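Further: peptides expressed intracellularly from a pBAD plasmid library in pooled LB shake-flask culture, induced with 0.3% L-arabinose, DNA abundance read by NGS, three biological replicates, DESeq2 with apeglm shrinkage.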

Row | Sequence | shrunken log2 fold change
1 | RRIRERPPRLPRPRPRPHNQPRP | -0.325
2 | RRIRERPPRLPRPRPRPHPDPRP | 0.0161
3 | RRIRERPPRLPRPRPRPHQEPRP | 0.0187
4 | RRIRERPPRLPRPRPRPHRGPRP | 0.0526
5 | RRIRERPPRLPRPRPRPHRVPRP | 0.0121
6 | RRIRERPPRLPRPRPRPHSQPRP | 0.061
7 | RRIRERPPRLPRPRPRPHSYPRP | -0.0459
8 | RRIRERPPRLPRPRPRPHTDPRP | -0.546
9 | RRIRERPPRLPRPRPRPHVNPRP | -1.04
10 | RRIRERPPRLPRPRPRPHYGPRP | -0.249
11 | RRIRERPPRLPRPRPRPIDSPRP | -0.0823
12 | RRIRERPPRLPRPRPRPIFGPRP | -0.112
13 | RRIRERPPRLPRPRPRPIGAPRP | -0.464
14 | RRIRERPPRLPRPRPRPIHIPRP | 0.0108
15 | RRIRERPPRLPRPRPRPIIEPRP | 0.0238
16 | RRIRERPPRLPRPRPRPIIVPRP | -0.149
17 | RRIRERPPRLPRPRPRPIKWPRP | -0.0383
18 | RRIRERPPRLPRPRPRPILRPRP | 0.109
19 | RRIRERPPRLPRPRPRPINPPRP | -0.00597
20 | RRIRERPPRLPRPRPRPINVPRP | 0.017
21 | RRIRERPPRLPRPRPRPIPPPRP | 0.0452
22 | RRIRERPPRLPRPRPRPISVPRP | -0.137
23 | RRIRERPPRLPRPRPRPITHPRP | -0.527
24 | RRIRERPPRLPRPRPRPIVEPRP | 0.0517
25 | RRIRERPPRLPRPRPRPIWQPRP | 0.062

Row | Sequence | shrunken log2 fold change
26 | RRIRERPPRLPRPRPRPIYMPRP | -0.372
27 | RRIRERPPRLPRPRPRPKADPRP | -0.0439
28 | RRIRERPPRLPRPRPRPKAEPRP | 0.0519
29 | RRIRERPPRLPRPRPRPKAVPRP | 0.0311
30 | RRIRERPPRLPRPRPRPKCWPRP | 0.23
31 | RRIRERPPRLPRPRPRPKDRPRP | -0.094
32 | RRIRERPPRLPRPRPRPKEHPRP | -0.457
33 | RRIRERPPRLPRPRPRPKEPPRP | 0.131
34 | RRIRERPPRLPRPRPRPKEVPRP | -0.324
35 | RRIRERPPRLPRPRPRPKEYPRP | -0.0204
36 | RRIRERPPRLPRPRPRPKFAPRP | -0.139
37 | RRIRERPPRLPRPRPRPKFEPRP | -0.0495
38 | RRIRERPPRLPRPRPRPKFQPRP | -0.268
39 | RRIRERPPRLPRPRPRPKGEPRP | 0.0173
40 | RRIRERPPRLPRPRPRPKHMPRP | -0.21
41 | RRIRERPPRLPRPRPRPKKRPRP | 0.0479
42 | RRIRERPPRLPRPRPRPKKYPRP | -0.518
43 | RRIRERPPRLPRPRPRPKLMPRP | 0.0215
44 | RRIRERPPRLPRPRPRPKLNPRP | -0.254
45 | RRIRERPPRLPRPRPRPKMEPRP | -0.0415
46 | RRIRERPPRLPRPRPRPKMIPRP | -0.399
47 | RRIRERPPRLPRPRPRPKNYPRP | -0.463
48 | RRIRERPPRLPRPRPRPKPCPRP | 0.133
49 | RRIRERPPRLPRPRPRPKPKPRP | 0.0931
50 | RRIRERPPRLPRPRPRPKPRPRP | 0.467

Row | Sequence | shrunken log2 fold change
51 | RRIRERPPRLPRPRPRPKPTPRP | 0.148
52 | RRIRERPPRLPRPRPRPKQAPRP | 0.156
53 | RRIRERPPRLPRPRPRPKQGPRP | -0.0514
54 | RRIRERPPRLPRPRPRPKQTPRP | -0.0871
55 | RRIRERPPRLPRPRPRPKQYPRP | -0.292
56 | RRIRERPPRLPRPRPRPKSHPRP | -0.336
57 | RRIRERPPRLPRPRPRPKSTPRP | -0.42
58 | RRIRERPPRLPRPRPRPKTFPRP | 0.0567
59 | RRIRERPPRLPRPRPRPKTMPRP | -0.293
60 | RRIRERPPRLPRPRPRPKTTPRP | -0.107
61 | RRIRERPPRLPRPRPRPKTWPRP | -0.104
62 | RRIRERPPRLPRPRPRPKTYPRP | -0.771
63 | RRIRERPPRLPRPRPRPKVMPRP | 0.0306
64 | RRIRERPPRLPRPRPRPKYHPRP | -0.57
65 | RRIRERPPRLPRPRPRPKYVPRP | -0.475
66 | RRIRERPPRLPRPRPRPKYYPRP | -0.183
67 | RRIRERPPRLPRPRPRPLAIPRP | -0.56
68 | RRIRERPPRLPRPRPRPLCKPRP | -0.304
69 | RRIRERPPRLPRPRPRPLCTPRP | -0.364
70 | RRIRERPPRLPRPRPRPLDTPRP | 0.213
71 | RRIRERPPRLPRPRPRPLFWPRP | 0.219
72 | RRIRERPPRLPRPRPRPLGAPRP | -0.159
73 | RRIRERPPRLPRPRPRPLGYPRP | -0.39
74 | RRIRERPPRLPRPRPRPLHEPRP | -0.65
75 | RRIRERPPRLPRPRPRPLHHPRP | -0.458

Row | Sequence | shrunken log2 fold change
76 | RRIRERPPRLPRPRPRPLHIPRP | -0.404
77 | RRIRERPPRLPRPRPRPLHMPRP | -0.203
78 | RRIRERPPRLPRPRPRPLKLPRP | -0.118
79 | RRIRERPPRLPRPRPRPLKTPRP | -0.457
80 | RRIRERPPRLPRPRPRPLMGPRP | 0.247
81 | RRIRERPPRLPRPRPRPLNCPRP | -1.25
82 | RRIRERPPRLPRPRPRPLNVPRP | -0.0706
83 | RRIRERPPRLPRPRPRPLPGPRP | -0.165
84 | RRIRERPPRLPRPRPRPLPKPRP | 0.222
85 | RRIRERPPRLPRPRPRPLPYPRP | -0.345
86 | RRIRERPPRLPRPRPRPLRAPRP | 0.348
87 | RRIRERPPRLPRPRPRPLSSPRP | 0.00508
88 | RRIRERPPRLPRPRPRPLTGPRP | -0.0199
89 | RRIRERPPRLPRPRPRPLVRPRP | -0.192
90 | RRIRERPPRLPRPRPRPLWKPRP | -0.424
91 | RRIRERPPRLPRPRPRPMAFPRP | 0.099
92 | RRIRERPPRLPRPRPRPMALPRP | -0.0232
93 | RRIRERPPRLPRPRPRPMCCPRP | -0.113
94 | RRIRERPPRLPRPRPRPMDDPRP | -0.015
95 | RRIRERPPRLPRPRPRPMEEPRP | 0.161
96 | RRIRERPPRLPRPRPRPMGPPRP | -0.0976
97 | RRIRERPPRLPRPRPRPMGQPRP | -0.0667
98 | RRIRERPPRLPRPRPRPMHGPRP | -0.00992
99 | RRIRERPPRLPRPRPRPMHWPRP | -0.0407
100 | RRIRERPPRLPRPRPRPMKEPRP | -0.0276

Row | Sequence | shrunken log2 fold change
101 | RRIRERPPRLPRPRPRPMKLPRP | -0.0902
102 | RRIRERPPRLPRPRPRPMLWPRP | -0.0445
103 | RRIRERPPRLPRPRPRPMMRPRP | 0.169
104 | RRIRERPPRLPRPRPRPMMWPRP | 0.3
105 | RRIRERPPRLPRPRPRPMNIPRP | -0.847
106 | RRIRERPPRLPRPRPRPMPYPRP | -0.0164
107 | RRIRERPPRLPRPRPRPMQDPRP | 0.306
108 | RRIRERPPRLPRPRPRPMQKPRP | 0.0175
109 | RRIRERPPRLPRPRPRPMRYPRP | 0.000213
110 | RRIRERPPRLPRPRPRPMSRPRP | -0.00149
111 | RRIRERPPRLPRPRPRPMTFPRP | -0.081
112 | RRIRERPPRLPRPRPRPMTQPRP | 0.00826
113 | RRIRERPPRLPRPRPRPMTRPRP | -0.00264
114 | RRIRERPPRLPRPRPRPMVVPRP | -0.261
115 | RRIRERPPRLPRPRPRPNDDPRP | -0.121
116 | RRIRERPPRLPRPRPRPNELPRP | -0.0227
117 | RRIRERPPRLPRPRPRPNFLPRP | -0.114
118 | RRIRERPPRLPRPRPRPNFMPRP | -0.178
119 | RRIRERPPRLPRPRPRPNGIPRP | -0.115
120 | RRIRERPPRLPRPRPRPNHSPRP | -0.594
121 | RRIRERPPRLPRPRPRPNIAPRP | 0.0918
122 | RRIRERPPRLPRPRPRPNIVPRP | -0.232
123 | RRIRERPPRLPRPRPRPNKDPRP | -0.321
124 | RRIRERPPRLPRPRPRPNKEPRP | -0.0147
125 | RRIRERPPRLPRPRPRPNLPPRP | -0.0648

Row | Sequence | shrunken log2 fold change
126 | RRIRERPPRLPRPRPRPNMKPRP | -0.6
127 | RRIRERPPRLPRPRPRPNNVPRP | -0.28
128 | RRIRERPPRLPRPRPRPNPGPRP | -0.55
129 | RRIRERPPRLPRPRPRPNPLPRP | -0.0696
130 | RRIRERPPRLPRPRPRPNQIPRP | -0.293
131 | RRIRERPPRLPRPRPRPNQLPRP | -0.0673
132 | RRIRERPPRLPRPRPRPNQMPRP | -0.0733
133 | RRIRERPPRLPRPRPRPNRRPRP | -0.0103
134 | RRIRERPPRLPRPRPRPNVDPRP | -0.0153
135 | RRIRERPPRLPRPRPRPNWLPRP | -0.00723
136 | RRIRERPPRLPRPRPRPNWSPRP | -0.3
137 | RRIRERPPRLPRPRPRPNYCPRP | -0.0596
138 | RRIRERPPRLPRPRPRPPAHPRP | 0.269
139 | RRIRERPPRLPRPRPRPPAVPRP | 0.349
140 | RRIRERPPRLPRPRPRPPCRPRP | -0.0117
141 | RRIRERPPRLPRPRPRPPDFPRP | 0.00276
142 | RRIRERPPRLPRPRPRPPGRPRP | 0.146
143 | RRIRERPPRLPRPRPRPPGTPRP | 0.152
144 | RRIRERPPRLPRPRPRPPHVPRP | -0.362
145 | RRIRERPPRLPRPRPRPPIYPRP | -0.633
146 | RRIRERPPRLPRPRPRPPKLPRP | -0.0377
147 | RRIRERPPRLPRPRPRPPKQPRP | 0.0175
148 | RRIRERPPRLPRPRPRPPKWPRP | -0.176
149 | RRIRERPPRLPRPRPRPPLCPRP | 0.124
150 | RRIRERPPRLPRPRPRPPLGPRP | 0.0751
